The record followed here is the NTF2 design screens of Basanta et al. (2020).

A short description of the data set: protease stability score; higher = more stable; yeast display proteolysis, trypsin and chymotrypsin.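 Also: relative to predicted unfolded state with 0 unfolded-like and 1 meaning tenfold more protease.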
Turning to “AEQHEQAREFLRNWLEAYHTGDEDLLRSMFDPNVRLHVDGRVIIGREDIIRERLHFLENHGITFHFRIQDMSVQGEKVIFDVEFHYRYNGQDYHKKVWLFVEKINGRWFMTQININ”, the protease stability score was determined as 2.19.

For the sequence “AREEEIVEEMARLMRHLWTTGDEEKIDEMLDPDVRVEWRVNGVHLENHGRDQFIRILRRFSDEWRLRSLHDETFRIQGDKVEVDSRFDVQVNGQRDILETEFHLVVVDGRIRHVEIIIK”, the protease stability score worked out at 1.6.

In turn, “DDALRHADTLLDQFEHHMETGDEESMTRLADPDTRTDINGQHFHGRDWWREFMRRVDHHHIRSVDYHSVRLFNGQIHFDVEIDVEIVIGDKRYRTRYHFEVVIVKIDGRWLLHRIKTE” gave a protease stability score of 0.861.

“DDDAIKRFHEQVDNEQHNNEEEQEKNVDPNATVNVGDKTYHGREKWREVVKRENEEMRVKYQHVTFRRHPGRVIVRFRIVNDHNGKPTETDVNANYQMHNGRIRQVNRRTDG” displayed a protease stability score of 0.225.

For the sequence “DDDDRKNHEIAKWIWELIETGDEDILQHLADPDYRLVLDFDGVHIHRHGMTRIYHTLERVYREFGADHIHIRSITNINGVNIIDGEVQVNGKHYRLVLIFIVVNGRIKEIRVKKR”, the protease stability score was determined as 1.54.

As for “DDDEEIIERALRLWEKFEQTGDEKRLDEMIDPNVRVNYNGVIHHGRDHLRHFFSRFDHFKRLHIEDSRFFNGKIIIHTRLEGRIGDKERTVNVIIIALKVDGKWFLESWSMS”, the protease stability score was 0.618.

For the sequence “DDDEHDTEKLLTFYSHAERTGDEELLRHLFDPDVKLYIGDKLFIGWRLFKERFRRWVEELGINHIEVHLHRYRIQGDKIDMDTRLELRYDGRTEHVESHVIVRKVDGRWNFERMHFN”, the protease stability score came to 0.745.

Sequence “DDDEHEAKEAIHLWLELFMTGDEESHNRYMDPHVKTKFHFENHHEEYHGREKAIELMRMLGIKHVELRDVSTRVINGRVHIDMEIIVHFDGQEVRVIVLVIVIKINGQWILHEVVIIIK” registered a protease stability score of 0.933.

“DDDEHNAHHAVEIWIHLLRTGDEHMLERMFDPNTRIRFNGREFHGREEAHRFIEELLRTLGVDHSHITIHDMKIQGNKVHVDTRLTLIVGDKTYSRNTHLVILKVNGRWWLHSMHFN” returned a protease stability score of 1.41.

“DDDEKDLEKLIREVMEIIWTGDEDTFRHFMDPNTRLFIDGKIIVGMEEIMRRWHELLRKFGVDKIEVRLDDFKIIGNKIELHFEIMIGDKRFKTQTIFEKIDGRWILHSRFIH” yielded a protease stability score of 2.01.

“DDDERALEEAIRIIKEVFKTGDERLHEELFDPNYLLIINGVFYHGREVMRNFHRHWRIRHVEFRRTRVINGRIEMDVHIITDINGQEIRHDSHIYAHKIDGRWIFRSVEHH” showed a protease stability score of 1.63.

For the sequence “DDDERDMDLALELIIRTIRTGDWELQSRLIDPHARLHIDGRDLHGMEEYVTILVEHWRRIKGVKVSITLHDRDVFDGVLHLDTEVELDFNGVRLHMKTEIISLKYNGRWFIKEIRVR”, the protease stability score was determined as 0.654.

On to “DDDHKVAEKMNDTFLRLFLTGDFERLWELADPHVRILFNGVEFHGREQMSTVIEHHLRQMRVHDVTIEHITWQGDKLHVHSILRTRVGDKKVDDHIEVNILKVDGKWIVKEVKIL”, for which the protease stability score came out at 2.01.

With “DDDHLRKVEDFMRAQLEGDPDRLKQLADPNVRMNVGEKKVHGMQDIATEQASTYKTARYEIKSLDSKTEGDKVVITMRVQADNNGQPHDETFHLKARLENGKIVEQSKENDG”, the protease stability score was -0.531.

For “DDDKKRAEELLRLWHEFFETGDEHDMNRNLDPHAKVDVNGKEIHGREFVSEWLVRKVKFFKGIKLEHKRSHFVNGRAHLHTEINFDGVEFEVIIHSDKINGRWLVHEIIIK”, the protease stability score stood at 1.17.

For the sequence “DDDKREMEEIARRWVESLETGDEDTLTKLADPNTKLELLIDGRENNLIGMRYWLEFLERFKNVTIKFKRMRVQGDKADIETEVNINGQRFRVRIELWVIDGRLHTLHIRIE”, the protease stability score worked out at 1.23.

Sequence “DDDQKEMERFVREFVHSFMTGDEENIRRLADPNARTYVNGKLRHGMDNFLHLWRQIRIDIQHVKVDDMHLVNGRIYIRVTVHGIFTFDGVHVRDEKDQHWELHVVDGRAKYISIHVH” gave a protease stability score of 1.62.

As to “DDDRRSLEDWIKISIESMKTGDEDEFEHLADPNPRMVVGDKHLVGRERAVHVFREWRVKHMTVKDHPIIDGRIEMDTRVTVHFNGRDIELELRIIIHKVNGKWLVEEIIIK”, the protease stability score amounted to 0.381.
